Measurements as given in the RNAGym collection of RNA variant scans (doi:10.1093/molbev/msab373).

B1: Azoarcus group I ribozyme (parent)
chain: GUGCCUUGCGCCGGGAAACCACGCAAGGGAUGGUGUCAAAUUCGGCGAAACCUAAGCGCCCGCCCGGGCGUAUGGCAACGCCGAGCCAAGCUUCGGCGCCUGCGCCGAUGAAGGUGUAGAGACUAGACGGCACCCACCUAAGGCAAACGCUAUGGUGAAGGCAUAGUCCAGGGAGUGGCGAAAGUCACACAAACCGG

Variants of: B1
Test: reverse-splicing fitness (ratio to wild type); higher = more active; in vitro selection; Mg2+ level not given
Summary of the method: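 An in vitro group I ribozyme library with randomized positions was T7-transcribed and gel-purified. In triplicate, 10 pmol RNA in EPPS pH 7.5 was reacted with 50 pmoles of a 30-nt RNA substrate for 1 h at 37 °C across several added MgCl2 levels (1–48 mM), then stopped with EDTA. Products were reverse transcribed from a substrate-complementary primer, PCR-amplified and sequenced (HiSeq 4000). Fitness is a variant's read proportion after selection over that before, normalised to wild type.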

Variant	reverse-splicing fitness
C82A A111C A120G A145C C150A C169A U176G	0.00603
C82A A111C A120G A145C C150A C169A U176A	0.01
C82A A111C A120G A145C C150G C169G U176A	0.00836
C82A A111C A120G A145C C150G C169G U176G	0.00475
C82A A111C A120G A145C C150G C169G U176C	0.00766
C82A A111C A120C C150A C169A	0.0111
C82A A111C A120C C150A C169G	0.00949
C82A A111C A120C C150A C169U	0.0133
C82A A111C A120G A145C C150A C169G U176A	0.0253
C82A A111C A120G A145C C150A C169G U176G	0.00557
C82A A111C A120G A145C C150A C169G U176C	0.0145
C82A A111C A120G A145G C150A C169A	0.0099
C82A A111C A120G A145G C150A C169U	0.00923
C82A A111C A120G A145G C150A C169G	0.00887
C82A A111C A120C A145G C150A C169A U176C	0.019
C82A A111C A120C A145G C150A C169A U176G	0.009
C82A A111C A120C A145G C150A C169A U176A	0.0209
C82A A111C A120G A145G C150G C169G U176A	0.00968
C82A A111C A120G A145G C150G C169G U176G	0.00603
C82A A111C A120G A145G C150G C169G U176C	0.0118
C82A A111C A120C A145G C150U C169G U176A	0.0127

Variant	reverse-splicing fitness
C82A A111C A120C A145G C150U C169G U176C	0.0166
C82A A111C A120C A145G C150U C169G U176G	0.00711
C82A A111C A120G A145G C150U C169A U176A	0.016
C82A A111C A120G A145G C150U C169A U176C	0.0149
C82A A111C A120G A145G C150U C169A U176G	0.00613
C82A A111C A120G A145C C150U C169A	0.00801
C82A A111C A120G A145C C150U C169G	0.00775
C82A A111C A120G A145C C150U C169U	0.00644
C82A A111C A120C A145C C150U C169G U176C	0.0178
C82A A111C A120C A145C C150U C169G U176A	0.0269
C82A A111C A120C A145C C150U C169G U176G	0.00659
C82A A111C A120C A145G C169A U176C	0.0288
C82A A111C A120C A145G C169A U176G	0.00684
C82A A111C A120C A145G C169A U176A	0.0249
C82A A111C A120C A145U C169G U176A	0.0151
C82A A111C A120C A145U C169G U176C	0.0178
C82A A111C A120C A145U C169G U176G	0.00709
C82A A111C A120C A145U C150G C169U	0.01
C82A A111C A120C A145U C150G C169G	0.00675
C82A A111C A120C A145U C150G C169A	0.00977
C82A A111C A120C A145U C169A U176C	0.0162

Variant	reverse-splicing fitness
C82A A111C A120C A145U C169A U176G	0.00807
C82A A111C A120C A145U C169A U176A	0.0132
C82A A111C A120G A145G C150U	0.0128
C82A A111C A120G A145G C150A	0.00888
C82A A111C A120G A145G C150G	0.00731
C82A A111C A120C C150G C169U U176A	0.00611
C82A A111C A120C C150G C169U U176C	0.0102
C82A A111C A120C C150G C169U U176G	0.00771
C82A A111C A120G A145C C169G U176C	0.0156
C82A A111C A120G A145C C169G U176A	0.0239
C82A A111C A120G A145C C169G U176G	0.00472
C82A A111C A120C A145G U176G	0.00691
C82A A111C A120C A145G U176A	0.0152
C82A A111C A120C A145G U176C	0.0274
C82A A111C A120C A145G C150G C169U	0.00903
C82A A111C A120C A145G C150G C169G	0.00793
C82A A111C A120C A145G C150G C169A	0.00894
C82A A111C A120C C169G U176C	0.0233
C82A A111C A120C C169G U176G	0.00756
C82A A111C A120C C169G U176A	0.0174
C82A A111C A120C A145G C150G U176A	0.00652

Variant	reverse-splicing fitness
C82A A111C A120C A145G C150G U176G	0.00679
C82A A111C A120C A145G C150G U176C	0.0113
C82A A111C A120C A145U C150U C169U	0.0124
C82A A111C A120C A145U C150U C169G	0.00764
C82A A111C A120C A145U C150U C169A	0.00985
C82A A111C A120C A145C C169U	0.0116
C82A A111C A120C A145C C169A	0.00691
C82A A111C A120C A145C C169G	0.00972
C82A A111C A120C A145U C150U C169U U176G	0.00824
C82A A111C A120C A145U C150U C169U U176A	0.0135
C82A A111C A120C A145U C150U C169U U176C	0.0133
C82A A111C A120C A145U C150U U176C	0.0187
C82A A111C A120C A145U C150U U176A	0.0128
C82A A111C A120C A145U C150U U176G	0.00695
C82A A111C A120G A145G C150A C169U U176A	0.0154
C82A A111C A120G A145G C150A C169U U176C	0.0139
C82A A111C A120G A145G C150A C169U U176G	0.00632
C82A A111C A120C C169U U176C	0.0149
C82A A111C A120C C169U U176G	0.00697
C82A A111C A120C C169U U176A	0.0152
